Results as given in the DeepSol protein solubility set.

Experiment: soluble on expression in E. coli; label from the status in PepcDB or PDB records
In the case of “MWRIELKHAVNWELKMKFFVLPELPTPDVVESGVWRRAIVLDGRAVAVMAYPESERTIVVEGNFENREWEAVRRKLVEYLGLQNPEELYRFMDGDEKLRMLKNRFYGFGRAGLMSMSVFEGIAKAIIQQQISFVVAEKLAAKIVGRFGDEVEWNGLKFYGFPTQEAILKAGVEGLRECGLSRRKAELIVEIAKEENLEELKEWGEEEAYEYLTSFKGIGRWTAELVLSIALGKNVFPADDLGVRRAVSRLYFNGEIQSAEKVREIARERFGRFARDILFYLFLYDRFFSKKTELV”, the “soluble on expression in E. coli” value was “soluble”.
In the case of “MGSDKIHHHHHHMNRSTRSHKAIVIFSGGQDSTTCLFQAIQEFKRENVEVITFQYGQRHSIELEKAAWIAQNLGIKQTVIDTSVIKAITTNALITEATIKQDGDKPNTFVDGRNALFLLYTAIYAKGQGIQTIFTGVCETDFSGYPDCRDIFIKSMNVTLNLAMDYNFNIRTPLMYLTKKQTWALADQLGAFEYVREHTHTCYLGVEGGCHTCPSCLLREKGLNEYLAEKSGEKNV”, the “soluble on expression in E. coli” value was “not soluble”.
With “MSLDIMITHKKIYSSLLNTKSRLNFKDTVQSGQSFRWNLNETLKSYYSSVIYNSIIFICEINSEMIEVLCTDQELSGKPINEFLKHLFSLDFQEETVFSSRFQQEFPEVWNLVQSYRSVRVMRQDPFEIMVTFMCAQGIGMHLIRRQVSMIAERYGQKIMLELPEGNLTFHSFPPPQALASADPNELAVCTNNNRIRAANIIAMARSFESGKLALACVDSGKCDLETLRETLCVHSGIGLKIADCIALFGLGRFDAFPIDTHVKQYLWEWFGIEEARHSLTEKNYRILQEKARAILGAEYAGYAGHILFHCWRKEVKKMKAEGHHHHHH” the “soluble on expression in E. coli” value was “soluble”.
For “MGSDKIHHHHHHMKIDEFNKALDRGEISPLYYFHGDEPHLMERAVKRLMDSAVPPDFRDFNLDVFYGNECKGDEVASVAQTLPMFADRRMVLVKRAGDLSAAALEILASCVADPPPTTCLVFMGEKVDQRKKFFQEMKKKGELVECKRPYENQLGAFIREEAKGLGKRVEPAAAEMLVYLVGNNLGELSTQLEKVALYVGQRETISVEDVRGIVSDTKVESVFDLTNALGERNVVKALRSLATILRDGEAPLMLLAMIARHFRQLWRVRDLMAQKVPQQDISRLAGINPYFIKGVMAQARNFSASELKKVFEGLYATDLALKGGGAKRPTLTLEKLVMDVCGMGSR”, the “soluble on expression in E. coli” value was “not soluble”.
With “MHFPISMAVPARFTGPLPESCDVVVIGAGVIGVMTGWYLAERGFRVTVCEKGRVAGEQSSRNWGWIRQQGRDPDELPIMVESLRLWQGLAQSLGNPFGFRQTGVLYLANREEQLSQYEGWMIHAAAQGLDTRLLGRRELAERLPGAADLWQGGLFTASDARAEPWLAVPALAAGAAERGVTILEDCAVRALDLEGGRVAGVTTERGRIRAPEVVLAGGAWSSLFARAHGVNLPQLSVLSSVAQTEPLPEILPGAAADDAFAFRRREDGGYTIAGGSEHDFFIGPDAFRHALKYRKAVKKDFLSTHYRWLAPRDYPDGWNTPRTWSKGAPTPFEAMRVLNPAPNLATLSRAAAAFGRAFPGVGRPKIRATWAGMIDTMPDVVPVIDRAPSVPGLTIATGMSGHGFGIGPGVGRVVADLVAGRPVGHDLTRFRLSRFTDGSEITLGPSL” the “soluble on expression in E. coli” value was “not soluble”.
